Laboratory results reported in article PMC2199961.
Values joined by “and” are separate entries in the source; they are usually repeats but may differ in a detail not shown here. Equal entries are not always repeated.

Biological target: aortic smooth muscle actin (alpha-smooth muscle actin) (bovine) (UniProt P62739)
Experiment: co-sedimentation

- percent of actin in the pellet (actin alone): 10% and 20%
- percent of actin in the pellet (with anti-aSM-1 at 1:16 antibody/actin): > 60%
Substance: aortic smooth muscle actin (alpha-smooth muscle actin) (from UniProt P62739 3-377) (natural protein)
